Target: the molecule itself
Assay: crystal structure; ^W59CCoa6 25 mg/ml in 20 mM Tris-MES pH 8.0, 150 mM NaCl; crystallized with 0.1 M Bis-Tris pH 5.7, 0.23 M MgCl2, 29% PEG 3350, 20°C; 2.2 Å; four molecules per asymmetric unit

Protein	binding result
pathogenic mutant protein ^W59CCoa6 (natural protein, human, five residues left at the N terminus after cleavage of the GST tag with PreScission Protease; Coa6, human; residues 47-125 of the full-length Coa6 isoform 1 (UniProtKB Q5JTJ3) with the patient mutation W59C; In the crystal, Cys59 of each chain is joined by an intermolecular disulfide to Cys59 of another chain; not shown: GST, N-terminal, cleaved) GPLGSMAAPSMKERQVCCGARDEYWKCLDENLEDASQCKKLRSSFESSCPQQWIKYFDKRRDYLKFKEKFEAGQFEPSETTAKS	binds

Target: the molecule itself
Assay: SEC; analytical SEC, Superdex 200 Increase 3.2/300, 100 μg protein, 20 mM Tris-MES pH 8.0, 150 mM NaCl, 0.05 ml/min; elution volumes compared with that of ^WTCoa6

Protein	stoichiometry N
^R101ACoa6 (natural protein, human, five residues left at the N terminus after cleavage of the GST tag with PreScission Protease; Coa6, human; residues 47-125 of the full-length Coa6 isoform 1 (UniProtKB Q5JTJ3), mutation introduced into the ^WTCoa6 ORF; not shown: GST, N-terminal, cleaved) GPLGSMAAPSMKERQVCWGARDEYWKCLDENLEDASQCKKLRSSFESSCPQQWIKYFDKARDYLKFKEKFEAGQFEPSETTAKS	2
^Y97A/Y104ACoa6 (natural protein, human, five residues left at the N terminus after cleavage of the GST tag with PreScission Protease; Coa6, human; residues 47-125 of the full-length Coa6 isoform 1 (UniProtKB Q5JTJ3), mutations introduced into the ^WTCoa6 ORF; not shown: GST, N-terminal, cleaved) GPLGSMAAPSMKERQVCWGARDEYWKCLDENLEDASQCKKLRSSFESSCPQQWIKAFDKRRDALKFKEKFEAGQFEPSETTAKS	2
^Y97ACoa6 (natural protein, human, five residues left at the N terminus after cleavage of the GST tag with PreScission Protease; Coa6, human; residues 47-125 of the full-length Coa6 isoform 1 (UniProtKB Q5JTJ3), mutation introduced into the ^WTCoa6 ORF; not shown: GST, N-terminal, cleaved) GPLGSMAAPSMKERQVCWGARDEYWKCLDENLEDASQCKKLRSSFESSCPQQWIKAFDKRRDYLKFKEKFEAGQFEPSETTAKS	2
human wild-type Coa6 (^WTCoa6) (natural protein, five residues left at the N terminus after cleavage of the GST tag with PreScission Protease; Coa6, human; isoform 3, composed of residues 47-125 of the full-length Coa6 isoform 1 (UniProtKB Q5JTJ3); the N-terminal residue is numbered Met47; Fully oxidized: intramolecular disulfides Cys58-Cys90 and Cys68-Cys79; also called Coa6 isoform 3; not shown: GST, N-terminal, cleaved) GPLGSMAAPSMKERQVCWGARDEYWKCLDENLEDASQCKKLRSSFESSCPQQWIKYFDKRRDYLKFKEKFEAGQFEPSETTAKS	2
^Y104ACoa6 (natural protein, human, five residues left at the N terminus after cleavage of the GST tag with PreScission Protease; Coa6, human; residues 47-125 of the full-length Coa6 isoform 1 (UniProtKB Q5JTJ3), mutation introduced into the ^WTCoa6 ORF; not shown: GST, N-terminal, cleaved) GPLGSMAAPSMKERQVCWGARDEYWKCLDENLEDASQCKKLRSSFESSCPQQWIKYFDKRRDALKFKEKFEAGQFEPSETTAKS	2

Source: paper PMC6743065, “Structural and functional characterization of the mitochondrial complex IV assembly factor Coa6” (Life Science Alliance, 2019)
